Source: patent US11504374B2, “Compositions and methods for the treatment of a beta-catenin-associated disease or disorder” (Dicerna Pharmaceuticals, Inc., priority 2016, dated 2022)

Key:
Hep3B tumors = test: Tumor growth inhibition, mouse model bearing Hep3B tumors; assay type: in vivo; details: administered individually at 2 mg/kg
Description: (§1) 6-8 week old Hsd:Athymic Nude-Foxn1^nu mice (hereby referred to as nude mice) were injected subcutaneously with LS411N (5×10^6 cells), SW403 (5×10^6 cells), Ls174t (5×10^6 cells) or Hep3B (5×10^6 cells+matrigel) under the right shoulder. Tumor volume was measured twice a week to monitor tumor growth/suppression. Dosing was initiated when the tumors reached 200-250 mm^3. For tumor growth inhibition studies, animals were randomized and assigned to different cohorts and subjected to dosing cycles. BCAT1 or LNP was given intravenously via lateral tail vein at a total volume of 10 ml/kg. Trametinib was given orally at a volume of 10 mi/kg.
Combination therapy with BCAT1 and a nucleic acid inhibitor molecule that targets the c-Myc gene (“MYC1”) was also evaluated. MYC1 has a 25 base pair passenger strand and a 27 base pair guide strand that form a duplex region consisting of 25 base pairs, where the 3′ end of the passenger strand and 5′ end of the guide strand form a blunt end, and the 3′ end of the guide strand consists of a single-stranded, two-base overhang. FIG. 9. The MYC1 construct was formulated in EnCore LNP.

LS411N tumors = test: Tumor growth inhibition, subcutaneous LS411N colorectal tumors in nude mice; assay type: in vivo; details: for growth inhibition: single agent, 0.1 mg/kg; for tumor growth inhibition: 2 cycles
Description: as §1
(§2) Human cell lines LS411N and SW403, Ls174t and Hep3B were obtained from ATCC (Manassas, Va.) and grown in RPMI/DMEM medium supplemented with 10% FBS. LS411N is a human colorectal cell line harboring mutations in the adenomatous polyposis coli (APC) and BRAF genes. APC is a component of the destruction complex in the Wnt signaling pathway. SW403 is a human colorectal cell line harboring mutations in the APC and KRAS genes. LS174t is a human colorectal cell line harboring mutations in the CTNNB1 and KRAS genes.
The single agent efficacy of BCAT1 was evaluated at different dose levels in different colorectal cancer models. […] FIG. 2A. […] FIG. 2C. […] Without intending to be bound by any theory, it appears that the Wnt pathway may be reactivated when treatment is stopped.
We then evaluated the single agent Trametinib in LS411N tumor bearing mice at different dose levels (3, 1 and 0.3 mg/kg) and selected […] as the dose to be used in the combination study. FIG. 5A. For BCAT1, a dose of 0.1 mg/kg was selected from the previous single agent efficacy studies to be used in combination with Trametinib to treat LS411N tumors. […] FIG. 5B.

SW403 tumors = test: Tumor growth inhibition, subcutaneous SW403 colorectal tumors in nude mice; assay type: in vivo; details: for tumor growth inhibition: each agent alone, 0.3 mg/kg
Description: as §1, §2
The combination treatment was also evaluated in a third CRC model (SW403) that has APC and KRAS mutations. As described for the other two models, we first checked the single agent Trametinib efficacy at different dose levels in these tumors and picked 0.3 mg/kg as the optimal dose for the combination study (FIG. 5C). BCAT1 was administered at the same dose (0.3 mg/kg) and used in combination with Trametinib.
In these CRC models, tumors generally develop resistance to Trametinib over time. To investigate this resistance, SW403 tumors were continuously treated with Trametinib at 3 mg/kg doses (qdx3, 3 mg/kg×3) until the tumors stopped responding to the treatment. Once the tumors stopped responding and became resistant to Trametinib treatment, we treated the tumors with a combination of BCAT1 and Trametinib (qdx3, 3mpk+ qdx3, 3mpk) (around Day 42). […]

Ls174t liver metastases = test: Survival in Ls174t CRC liver metastases model; assay type: in vivo, nude mice; details: for mice that died around day 48: 2 mg/kg or 2+2 mg/kg, start 3 weeks after implantation; for median survival: single agent 2 mg/kg, start 3 weeks after implantation of 2×10^6 cells
Description: (§3) Colorectal cancer (CRC) liver metastases models were generated by surgically implanting 1-2×10^6 cells in the spleen of nude mice after midline abdominal incision. After surgery, the abdominal incision was closed with 5-0 to 6-0 absorbable, nonbraided suture and the skin was closed with a single wound clip. Mice were anesthetized with isoflurane before initiating the surgery and during surgery. Buprenorphine was given preoperatively and post-operatively at 0.1 mg/kg subcutaneously for pain relief. Mice were held in a pathogen-free environment and all procedures involving animals were performed according to protocols approved by Dicerna Pharmaceuticals' Institutional Animal Care and Use Committee (Dicerna-IACUC).
We developed multiple CRC liver metastatic models by surgically implanting Ls174t and LS411N cells in spleen.
Before we evaluated the combination strategies in these CRC metastatic models, we ran a single agent Trametinib efficacy in the Ls174t liver metastatic model. Fewer number of Ls174t cells (1×10^6 cells) were implanted in the spleen this model to reduce the aggressiveness of the tumor progression. 18 days after the implantation, mice were randomly distributed into 3 groups and treated with PBS, Trametinib at 1 mg/kg or Trametinib at 3 mg/kg dose levels (qdx3, 3 cycles).
Next we ran a combination efficacy study in mice bearing Ls714t liver metastasis based on the doses used in the single agent efficacy studies. This time, the treatment was initiated 3 weeks after tumor implantation of 2×10^6 Ls174t cells. BCAT1, Placebo, and Trametinib were dosed at 2 mg/kg and the combination groups (Placebo+Trametinib or BCAT1+Trametinib) were dosed at 2+2 mg/kg.

LS174t tumors = test: Tumor growth inhibition, subcutaneous Ls174t colorectal tumors in nude mice; assay type: in vivo; details: qdx3, 3 mg/kg, 2 cycles
Description: as §1, §2
Combination therapy with BCAT1 and an MEK inhibitor (trametinib) was evaluated. Trametinib (99% purity) was dissolved in DMSO to make a clear solution of 5 mg/ml. […]

RKO tumors = test: Tumor growth inhibition, β-catenin/APC wild type RKO colorectal tumors; assay type: in vivo; details: qdx3, 3 mg/kg, 2 cycles
LS411N liver metastases = test: Survival in LS411N CRC liver metastases model; assay type: in vivo, nude mice; details: qdx3, 3 mg/kg, 3 weeks
Description: as §3
We developed multiple CRC liver metastatic models by surgically implanting Ls174t and LS411N cells in spleen. 2-5 weeks after implanting 2×10^6 cells, the primary Ls174t tumors grown in the spleen spontaneously metastasized to the liver. To see if BCAT1 monotherapy will treat both primary and metastatic tumors and improve survival, 2 weeks after the tumor implantation, mice bearing Ls174t tumors were treated with BCAT1 or placebo at 3 mg/kg doses (qdx3, 3 mg/kg, 3 cycles). […] The […] survival time (“MST”) of the control-treated group is 31 days, whereas the MST of the BCAT1-treated group is 46 days).
Similarly, the mice with LS411N liver metastases were also treated with BCAT1 or controls (placebo or PBS) at the same dose levels for 3 weeks. Unlike the Ls174t tumors, LS411N tumors took a much longer time to metastasize to the liver after implanting 2×10^6 cells in the spleen. The treatment was initiated 18 days after the implantation of LS411N cells in the spleen. It took 112 days for all the control treated mice to die. […] It took about 6 months for all of the BCAT1-treated mice to die. In summary, BCAT treatment extended the survival of mice bearing LS411N liver metastasis by up to two-fold compared to the control treatment groups (MST of PBS/Placebo treatment groups is 99-102 days, whereas the MST of the BCAT1-treated group is 181 days).

[1] = system: multiple tumor types (xenograft, PDX, GEM tumors); test: Delivery of LNP formulated BCAT1 nucleic acid payload to tumors in mouse models; assay type: in vivo
Description: The BCAT1 construct was formulated in EnCore lipid nanoparticles (LNP).

[2] = start 18 days after implantation

## MYC1: nucleic acid inhibitor molecule targeting the c-Myc gene; sense strand SEQ ID NO:5, antisense strand SEQ ID NO:6 (sense AGCUUUUUUGCCCUGCGUGACCAGA; antisense UCUGGUCACGCAGGGCAAAAAAGCUCC; listed as RNA, chemistry not given here)
Hep3B tumors
  growth inhibition: 40%

## CC(=O)Nc1cccc(-n2c(=O)n(C3CC3)c(=O)c3c(Nc4ccc(I)cc4F)n(C)c(=O)c(C)c32)c1 [Trametinib, trametinib]
LS411N tumors
  growth inhibition: about 20%
SW403 tumors
  tumor growth inhibition: 40%
Ls174t liver metastases; 1 mg/kg, qdx3, 3 cycles, 1×10^6 cells, start 18 days after implantation
  mean survival time (MST): 47 days
Ls174t liver metastases
  mice that died around day 48: 90%
Ls174t liver metastases; 3 mg/kg, qdx3, 3 cycles, 1×10^6 cells, start 18 days after implantation
  mean survival time (MST): 65 days
Ls174t liver metastases; qdx3, 3 cycles
  median survival: 44 days

B1: BCAT1: nucleic acid inhibitor molecule targeting the β-catenin gene; sense strand SEQ ID NO:1, antisense strand SEQ ID NO:2 (nucleic acid)
sense: AGAAUACAAAUGAUGUAGAAACAGCC
antisense: UAGCUAUCGTGGCUGUUUCUACAUCAUUUGUAUUCUGC
modifications: chemistry not given here
LS174t tumors
  anti-tumor efficacy: Robust efficacy
RKO tumors
  anti-tumor efficacy: No efficacy
LS411N tumors; qdX3, 3 mg/kg, discontinued after the second cycle
  tumor growth after therapy discontinued: tumor growth resumed to a level roughly comparable to untreated subjects
LS411N tumors; qdx3, 0.3 mg/kg
  tumor growth inhibition: 47%
LS411N tumors; qdx3, 1 mg/kg, two weekly dosing cycles, i.v.
  tumor growth inhibition relative to vehicle-treated animals: 82%
LS411N tumors; qwx1, 3 mg/kg, weekly dosing
  tumor growth inhibition: 60%
LS411N tumors
  growth inhibition: about 20%
SW403 tumors
  tumor growth inhibition: 20%
SW403 tumors; qdx3, 3 mg/kg, 2 cycles
  anti-tumor efficacy: Robust efficacy
Hep3B tumors
  growth inhibition: 47%
LS411N liver metastases
  extension of survival compared to control treatment groups: up to two-fold
  time for all treated mice to die: about 6 months
LS411N liver metastases; [2]
  mean survival time (MST): 181 days
  mice surviving at 112 days post-implant: 75%
Ls174t liver metastases
  mice that died around day 48: 90%
Ls174t liver metastases; qdx3, 3 mg/kg, 3 cycles, start 2 weeks after implantation of 2×10^6 cells
  mean survival time (MST): 46 days
Ls174t liver metastases; qdx3, 3 cycles
  median survival: 45 days
[1]; HCT116, DLD1, HL60
  delivery of BCAT1 to tumors: Negative: HCT116, DLD1, HL60
[1]; LNP formulated, tumor types of Table I (subcutaneous, orthotopic, disseminated, metastatic xenografts, PDX, GEM)
  delivery of the nucleic acid payload to tumors: effectively delivered
